Measured values reported in paper PMC3616717.

T1: human F-box-containing DNA helicase FBH1, FLAG-tagged and biotinylated, non-ubiquitylated (human), Q8NFZ0
T1 chain: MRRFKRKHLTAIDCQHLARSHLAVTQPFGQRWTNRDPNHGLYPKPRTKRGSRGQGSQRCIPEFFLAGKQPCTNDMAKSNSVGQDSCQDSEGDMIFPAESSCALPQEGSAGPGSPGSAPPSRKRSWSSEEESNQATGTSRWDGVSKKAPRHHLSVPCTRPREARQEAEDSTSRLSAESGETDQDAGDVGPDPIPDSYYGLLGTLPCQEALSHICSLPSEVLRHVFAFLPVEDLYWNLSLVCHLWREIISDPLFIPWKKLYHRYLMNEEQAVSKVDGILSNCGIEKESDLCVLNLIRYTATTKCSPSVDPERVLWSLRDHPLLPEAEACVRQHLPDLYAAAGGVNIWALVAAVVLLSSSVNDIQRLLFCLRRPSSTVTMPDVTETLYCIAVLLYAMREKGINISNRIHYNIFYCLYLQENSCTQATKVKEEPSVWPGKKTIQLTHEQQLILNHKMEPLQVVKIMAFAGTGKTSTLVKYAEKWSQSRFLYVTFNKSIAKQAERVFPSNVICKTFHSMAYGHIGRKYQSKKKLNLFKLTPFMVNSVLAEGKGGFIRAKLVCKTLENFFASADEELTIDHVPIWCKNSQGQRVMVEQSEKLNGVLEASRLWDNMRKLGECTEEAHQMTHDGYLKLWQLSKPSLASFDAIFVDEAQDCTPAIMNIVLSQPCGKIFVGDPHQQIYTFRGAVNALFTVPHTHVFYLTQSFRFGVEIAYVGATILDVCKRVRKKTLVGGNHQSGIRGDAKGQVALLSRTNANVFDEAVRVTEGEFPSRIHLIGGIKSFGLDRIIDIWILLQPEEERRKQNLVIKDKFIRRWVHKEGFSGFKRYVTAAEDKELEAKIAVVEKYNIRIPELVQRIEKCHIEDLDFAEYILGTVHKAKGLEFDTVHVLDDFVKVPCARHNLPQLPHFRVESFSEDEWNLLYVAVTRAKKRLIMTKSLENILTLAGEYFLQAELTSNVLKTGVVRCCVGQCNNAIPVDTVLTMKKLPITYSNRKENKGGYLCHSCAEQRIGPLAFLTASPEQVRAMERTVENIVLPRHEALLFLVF


What was measured:
RAD51 = RAD51 (UniProt Q06609 1-339); assay: single-molecule FRET
[1] = molecular target: T1, human F-box-containing DNA helicase …; assay: single-molecule TIRFM; settings: remark: other sources report otherwise

kon [1]	Binder	binding result (RAD51)
–	Cy3/Cy5-labeled poly(dT)60 (oligo g) (ssDNA) DNA: TTTTTTTTTTTTTTTTTTTTTTTTTTTTTTTTTTTTTTTTTTTTTTTTTTTTTTTTTTTT	binds
2.7e+07 M⁻¹ s⁻¹	human RAD51 protein, Q06609 1-339 (natural protein, here or on the partner: biotin on the underlined lysine of the BAP sequence (…)) MAMQMQLEANADTSVEEESFGPQPISRLEQCGINANDVKKLEEAGFHTVEAVAYAPKKELINIKGISEAKADKILAEAAKLVPMGFTTATEFHQRRSEIIQITTGSKELDKLLQGGIETGSITEMFGEFRTGKTQICHTLAVTCQLPIDRGGGEGKAMYIDTEGTFRPERLLAVAERYGLSGSDVLDNVAYARAFNTDHQTQLLYQASAMMVESRYALLIVDSATALYRTDYSGRGELSARQMHLARFLRMLLRLADEFGVAVVITNQVVAQVDGAAMFAADPKKPIGGNIIAHASTTRLYLRKGRGETRICKIYDSPCLPEAEAMFAINADGVGDAKD	–
